These results are taken from the supplement of paper PMC10567573.

The chains are these.
B1: TRIM15 (parent)
chain: LSQMGAQSSGKILLCPLCQEEEQA
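Also: lentivirally expressed fusions sorted by FACS into six bins by GFP to DsRed ratio, PSI derived from sequencing read proportions per bin multiplied by bin number.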

Variants of B1 are the subject of this data set. Briefly: protein stability index of a GFP-peptide fusion (GPS, HEK-293T) (PSI 1-6); higher = more stable. Particulars: c terminus: a fixed tail appended.
LSQMGAQSSGKILLCPLCQEIEQA [E21I]: the protein stability index is 2.26.
Next, LSQMGAQSSGKILLCPLCQETEQA [E21T]: 3.36; LSQMGAQSSGKILLCPLCQEFEQA [E21F]: 2.4; LSQMGAQSSGKILLCPLCQEYEQA [E21Y]: 2.82.
LSQMGAQSSGKILLCPLCQEKEQA [E21K]: the protein stability index was 2.85.
Then LSQMGAQSSGKILLCPLCQEAEQA [E21A], with 3.22.
Next, LSQMGAQSSGKILLCPLCQEPEQA [E21P]: 3.36; LSQMGAQSSGKILLCPLCQEMEQA [E21M]: 2.88; LSQMGAQSSGKILLCPLCQEHEQA [E21H]: 3.31.
Take LSQMGAQSSGKILLCPLCQEWEQA [E21W]: the protein stability index was 2.89.
Next, LSQMGAQSSGKILLCPLCQEDEQA [E21D]: 3.36.
Next, LSQMGAQSSGKILLCPLCQEQEQA [E21Q]: 2.91; LSQMGAQSSGKILLCPLCQENEQA [E21N]: 2.92; LSQMGAQSSGKILLCPLCQEREQA [E21R]: 2.48.
Then LSQMGAQSSGKILLCPLCQECEQA [E21C], with 2.55; and LSQMGAQSSGKILLCPLCQEGEQA [E21G], with 2.83.
With LSQMGAQSSGKILLCPLCQEVEQA [E21V], the protein stability index was 3.08.
Next, LSQMGAQSSGKILLCPLCMEEEQA [Q19M]: 3.19.
Then LSQMGAQSSGKILLCPLCVEEEQA [Q19V], with 4.04; and LSQMGAQSSGKILLCPLCCEEEQA [Q19C], with 2.52; and LSQMGAQSSGKILLCPLCEEEEQA [Q19E], with 4.01.
Then LSQMGAQSSGKILLCPLCIEEEQA [Q19I], with 3.18.
On to LSQMGAQSSGKILLCPLCREEEQA [Q19R], for which the protein stability index came out at 3.54.
Next, LSQMGAQSSGKILLCPLCGEEEQA [Q19G]: 3.98; LSQMGAQSSGKILLCPLCPEEEQA [Q19P]: 4.42; LSQMGAQSSGKILLCPLCAEEEQA [Q19A]: 4.35.
Take LSQMGAQSSGKILLCPLCNEEEQA [Q19N]: the protein stability index stood at 3.57.
In the case of LSQMGAQSSGKILLCPLCHEEEQA [Q19H], the protein stability index came out at 3.24.
In the case of LSQMGAQSSGKILLCPLCFEEEQA [Q19F], the protein stability index amounted to 3.62.
For LSQMGAQSSGKILLCPLCKEEEQA [Q19K], the protein stability index was 3.46.
Next, LSQMGAQSSGKILLCPLCWEEEQA [Q19W]: 2.78; LSQMGAQSSGKILLCPLCSEEEQA [Q19S]: 3.23.
Then LSQMGAQSSGKILLCPLCLEEEQA [Q19L], with 2.62.
LSQMGAQSSGKILLCPLCTEEEQA [Q19T]: the protein stability index came out at 3.83.
Next, LSQMGAQSSGKILLCPLCYEEEQA [Q19Y]: 3.73; LSQMGAQSSGKILLCPLCDEEEQA [Q19D]: 4.16.
Next, LSQMGAQSSGKILLCPLCQEEEQC [A24C]: 3.14.
Then LSQMGAQSSGKILLCPLCQEEEQD [A24D], with 4.56; and LSQMGAQSSGKILLCPLCQEEEMA [Q23M], with 3.31; and LSQMGAQSSGKILLCPLCQEEECA [Q23C], with 3.58.
Take LSQMGAQSSGKILLCPLCQEEEIA [Q23I]: the protein stability index is 3.2.
Next, LSQMGAQSSGKILLCPLCQEEEGA [Q23G]: 3.47; LSQMGAQSSGKILLCPLCQEEEYA [Q23Y]: 3.09.
With LSQMGAQSSGKILLCPLCQEEEHA [Q23H], the protein stability index turned out to be 3.96.
Then LSQMGAQSSGKILLCPLCQEEEEA [Q23E], with 4.53; and LSQMGAQSSGKILLCPLCQEEEFA [Q23F], with 2.96.
As for LSQMGAQSSGKILLCPLCQEEEDA [Q23D], the protein stability index worked out at 2.89.
Next, LSQMGAQSSGKILLCPLCQEEETA [Q23T]: 3.33; LSQMGAQSSGKILLCPLCQEEENA [Q23N]: 3.67.
Next, LSQMGAQSSGKILLCPLCQEEEAA [Q23A]: 2.89.
Then LSQMGAQSSGKILLCPLCQEEELA [Q23L], with 3.12; and LSQMGAQSSGKILLCPLCQEEEWA [Q23W], with 3.56; and LSQMGAQSSGKILLCPLCQEEEVA [Q23V], with 3.11.
For LSQMGAQSSGKILLCPLYQEEEQA [C18Y], the protein stability index is 4.27.
Next, LSQMGAQSSGKILLCPLWQEEEQA [C18W]: 4.59; LSQMGAQSSGKILLCPLVQEEEQA [C18V]: 4.76; LSQMGAQSSGKILLCPLQQEEEQA [C18Q]: 5.56.
Then LSQMGAQSSGKILLCPLTQEEEQA [C18T], with 4.86.
Then LSQMGAQSSGKILLCPLRQEEEQA [C18R], with 4.21.
LSQMGAQSSGKILLCPLSQEEEQA [C18S]: the protein stability index was 4.92.
Then LSQMGAQSSGKILLCPLCQEEVQA [E22V], with 4.13; and LSQMGAQSSGKILLCPLCQEEYQA [E22Y], with 2.02; and LSQMGAQSSGKILLCPLCQEENQA [E22N], with 4.15.
For the variant LSQMGAQSSGKILLCPLCQEEIQA [E22I], the protein stability index turned out to be 2.63.
Then LSQMGAQSSGKILLCPLCQEEDQA [E22D], with 3.41; and LSQMGAQSSGKILLCPLCQEEFQA [E22F], with 2.6; and LSQMGAQSSGKILLCPLCQEELQA [E22L], with 3.38.
For LSQMGAQSSGKILLCPLCQEEKQA [E22K], the protein stability index is 3.74.
Then LSQMGAQSSGKILLCPLCQEESQA [E22S], with 2.89; and LSQMGAQSSGKILLCPLCQEEPQA [E22P], with 2.56.
Next, LSQMGAQSSGKILLCPLCQEEWQA [E22W]: 2.
Then LSQMGAQSSGKILLCPLCQEEQQA [E22Q], with 3.2; and LSQMGAQSSGKILLCPLCQEEMQA [E22M], with 2.56; and LSQMGAQSSGKILLCPLCQEEAQA [E22A], with 4.08.
For LSQMGAQSSGKILLCPLCQEECQA [E22C], the protein stability index worked out at 2.82.
Then LSQMGAQSSGKILLCPLCQEEGQA [E22G], with 3.12.
On to LSQMGAQSSGKILLCPLCQEEHQA [E22H], for which the protein stability index is 3.67.
Next, LSQMGAQSSGKILLCPLCQEETQA [E22T]: 3.46.
Next, LSQMGAQSSGKILLCPLCQKEEQA [E20K]: 3.58; LSQMGAQSSGKILLCPLCQAEEQA [E20A]: 3.49.
Turning to LSQMGAQSSGKILLCPLCQLEEQA [E20L], the protein stability index amounted to 2.82.
Then LSQMGAQSSGKILLCPLCQDEEQA [E20D], with 4.27; and LSQMGAQSSGKILLCPLCQIEEQA [E20I], with 2.79.
Next, LSQMGAQSSGKILLCPLCQHEEQA [E20H]: 2.65; LSQMGAQSSGKILLCPLCQYEEQA [E20Y]: 2.01.
Then LSQMGAQSSGKILLCPLCQGEEQA [E20G], with 2.81.
LSQMGAQSSGKILLCPLCQVEEQA [E20V]: the protein stability index stood at 2.79.
For the variant LSQMGAQSSGKILLCPLCQREEQA [E20R], the protein stability index is 3.77.
For the variant LSQMGAQSSGKILLCPLCQCEEQA [E20C], the protein stability index stood at 2.44.
Take LSQMGAQSSGKILLCPLCQSEEQA [E20S]: the protein stability index is 2.64.
Next, LSQMGAQSSGKILLCPLCQMEEQA [E20M]: 2.73; LSQMGAQSSGKILLCPLCQFEEQA [E20F]: 2.27; LSQMGAQSSGKILLCPLCQPEEQA [E20P]: 3.75.
Then LSQMGAQSSGKILLCPLCQTEEQA [E20T], with 3.19.
